Measured values taken from PMC8113602.

Assays:
[1] = target: gp41 bait of pBT3-SUC-gp41 (ectodomain and transmembrane region of gp41, HIV-1 Env aa 534-709); assay: split-ubiquitin yeast two-hybrid, β-galactosidase activity assay; conditions: yeast NMY51, three independent yeast colonies, parent: est. 39, read off a plot
SP-gp41-CFP (HIV-1) = assay: FRET or BRET; acceptor photobleaching FRET in HEK293T cells 24 h after transfection; donor SP-gp41-CFP, acceptor CD63-YFP; 514 nm bleaching

| Substance | response [1] [Miller units] | reduction of FRET efficiency against CD63-YFP as acceptor (SP-gp41-CFP (HIV-1)) [%] |
| --- | --- | --- |
| CD63 TM4LEL (aa 108-238), single membrane spanning prey (from UniProt P08962) C145A; C146A | 11 | – |
| CD63 TM4LEL (aa 108-238), single membrane spanning prey (from UniProt P08962) C169A; C170A | 30 | – |
| CD63 TM4LEL (aa 108-238), single membrane spanning prey (from UniProt P08962) C177A | 25 | – |
| CD63 TM4LEL (aa 108-238), single membrane spanning prey (from UniProt P08962) C191A | 17 | – |
| CD63_(C145A,C146A)-YFP (from UniProt P08962 1-238) (natural protein) | – | < 58 |
